Assay results published in patent CN113797333A (SHANGHAI JUNSHI BIOSCIENCES CO LTD; JUNMENG BIOSCIENCES CO …, dated 2021).
Where “and” joins values, the source holds several entries; their conditions need not be identical. Equal values may be shown once.

Biological target: 全序列COVID-19刺突蛋白 (on COVID-19 pseudovirus) (COVID-19 (SARS-CoV-2), UniProt P0DTC2 14-1273)
Assay: cell-based or functional assay

B1: 人源化单克隆抗体CB6 (antibody, V domains shown)
VH: EVQLVESGGGLVQPGGSLRLSCAASGFTVSSNYMSWVRQAPGKGLEWVSVIYSGGSTFYADSVKGRFTISRDNSMNTLFLQMNSLRAEDTAVYYCARVLPMYGDYLDYWGQGTLVTVSS
VL: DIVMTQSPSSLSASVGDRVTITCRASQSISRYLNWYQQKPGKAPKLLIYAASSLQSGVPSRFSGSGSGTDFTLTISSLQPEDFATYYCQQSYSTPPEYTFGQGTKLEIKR
B1 was tested, and the “IC50 of inhibition of COVID-19 pseudovirus infection of Huh-7 cells (luciferase)” value was 0.183 nM and 0.0275 μg/ml.
